Data set [1] concerns surface proteins of Aggregatibacter actinomycetemcomitans (whole cells) (Aggregatibacter actinomycetemcomitans). The following applies: whole-cell binding, real-time PCR of eluted aptamer, SELEX buffer, room temperature. (In general: Quantitative PCR measures a nucleic acid by following its amplification.)
The subject of data set [2] is surface proteins of Porphyromonas gingivalis (whole cells) (Porphyromonas gingivalis). The following applies: whole-cell binding, real-time PCR of eluted aptamer, SELEX buffer, room temperature.

As a reminder, the Kd is the constant that tells how readily two partners part at equilibrium. Higher therefore signals a looser complex. On to “TCCCTACGGCGCTAACCGTATGTGTACCCGGTGGGGCGCGATTGACGCCACCGTGCTACAAC [A. actinomycetemcomitans aptamer]”, for which, in data set [1], the Kd was 3.5 nM. Consider “TCCCTACGGCGCTAACTGTAACTGGGAGCGGACCTAGGTTACATGAGCCACCGTGCTACAAC [P. gingivalis aptamer]”, for which, in data set [2], the Kd was found to be 4.59 nM.

Source of the values: patent US10487331.
